Laboratory results: patent US9439886B2, “Methods for producing crosslinked flavonoid hydrogels” (Agency for Science, Technology and Research, priority 2009, dated 2016)

Legend:
[1] = Gelation time of HA-EGCG hydrogels (vial tilting); format: physicochemical; conditions: pH 7.4, no exogenous H2O2, HA-EGCG 17.5 mg/ml
Protocol: Preparation of HA-EGCG solution: For all experiments described below, HA-EGCG stock solution was prepared by dissolving the conjugates in distilled water at 25 mg/ml at room temperature using a magnetic stirrer. Dissolution took about 25 min and the pH of the solution was 2.5. Then the pH was brought to 6 using 2 M NaOH before diluting with sodium phosphate buffer (final ionic strength: 0.15 M) to the desired concentration and pH, depending on the gelation condition.
Formation of HA-EGCG hydrogels through air autoxidation: To form HA-EGCG hydrogel by air autoxidation, HA-EGCG solution was diluted to 17.5 mg/ml by adding sodium phosphate buffer with pH between 6.0 to 8. To determine the gelation time, glass vials containing 0.25 ml of HA-EGCG were tilted frequently at 90 degrees for 5 sec, the time at which no obvious flowing motion could be observed was recorded as the gelation time.
Acceleration of HA-EGCG hydrogel formation through air autoxidation by adding catalase: Stock solution of catalase was prepared by dissolving the enzyme in distilled water at 22.5 kU/ml. […] The gelation time was determined as described above.
Formation of HA-EGCG hydrogel by HRP-mediated crosslinking reaction: HRP stock solution was prepared in water at 6.25 U/ml. […] The gelation time was determined as described above.

[2] = H2O2 production by HA-EGCG (PeroXOquant peroxide assay); format: physicochemical; conditions: HA-EGCG 10 mg/ml; pH 7.4; over 35 min; increased with time
Protocol: Measurement of H2O2 Production by HA-EGCG: The amount of H2O2 produced by HA-EGCG was determined using the PeroXOquant Quantitative Peroxide Assay Kits from Pierce. In order to determine the amount of H2O2 produced during the dissolution process, a sample of the dissolved conjugates was diluted 20-fold with distilled water, 20 μl of which was added to the well of a 96-wellplate follow by the addition of 200 μl working reagent prepared according to manufacturer's protocol. The HA-EGCG solution was then diluted to 10 mg/ml with phosphate buffer. The final ionic strength of the mixture was 0.15 M and pH was 7.4. For the next 35 min, 20 μl of the HA-EGCG solution was drawn out every 5 min and diluted 10-fold with distilled water. 20 μl of the diluted sample was then added to a well of a 96-wellplate followed by 200 μl of working reagents. After the last sample was collected and the working reagent added, the plate was incubated for another 1 h before reading the absorbance at 595 nm. The amount of H2O2 produced by HA-EGCG was determined by comparing to a set of H2O2 standards.

For “hyaluronic acid-epigallocatechin gallate [HA-EGCG]”, the gelation time ([1]; HRP 0 unit/ml) was 50 min, the gelation time ([1]; HRP 0.125 unit/ml) was 9 min and the “amount of H2O2 generated during air-autoxidation” value [2] was “micromolar range”.
